B1: Tsg101 (aa 147-391) (other, human, UniProt Q99816 147-390, looked up)
chain: SASYPPYQATGPPNTSYMPGMPGGISPYPSGYPPNPSGYPGCPYPPGGPYPATTSSQYPSQPPVTTVGPSRDGTISEDTIRASLISAVSDKLRWRMKEEMDRAQAELNALKRTEEDLKKGHQKLEEMVTRLDQEVAEVDKNIELLKKKDEELSSALEKMENQSENNDIDEVIIPTAPLYKQILNLYAEENAIEDTIFYLGEALRRGVIDLDVFLKHVRLLSRKQFQLRALMQKARKTAGLSDLY
notes: range 147-391
B4: VPS28 protein (aa 10-221) (other, human, UniProt Q9UK41 10-221, looked up)
chain: GIGAPGNKPELYEEVKLYKNAREREKYDNMAELFAVVKTMQALEKAYIKDCVSPSEYTAACSRLLVQYKAAFRQVQGSEISSIDEFCRKFRLDCPLAMERIKEDRPITIKDDKGNLNRCIADVVSLFITVMDKLRLEIRAMDEIQPDLRELMETMHRMSHLPPDFEGRQTVSQWLQTLSGMSASDELDDSQVRQMLFDLESAYNAFNRFLHA

Assays:
Assay in all cases: yeast two-hybrid
[1] = molecular target: T1, Golgi autoantigen (Golgin-84) (aa 198-501) (UniProt Q8TBA6 198-501)
T1 construct: range 198-501
T1 sequence (looked up): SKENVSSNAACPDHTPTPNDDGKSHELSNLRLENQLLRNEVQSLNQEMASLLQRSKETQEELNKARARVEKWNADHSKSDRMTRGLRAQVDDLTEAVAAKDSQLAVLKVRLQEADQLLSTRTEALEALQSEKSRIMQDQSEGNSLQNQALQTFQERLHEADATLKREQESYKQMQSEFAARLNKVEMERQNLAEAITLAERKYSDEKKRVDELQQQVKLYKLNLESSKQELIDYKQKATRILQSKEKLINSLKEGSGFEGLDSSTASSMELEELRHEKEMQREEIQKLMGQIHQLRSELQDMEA

[2] = molecular target: T2, Cytoplasmic linker 2 (CYLN2) (aa 607-947) (UniProt Q9UDT6 607-947)
T2 construct: also called CLIP-115
T2 sequence (looked up): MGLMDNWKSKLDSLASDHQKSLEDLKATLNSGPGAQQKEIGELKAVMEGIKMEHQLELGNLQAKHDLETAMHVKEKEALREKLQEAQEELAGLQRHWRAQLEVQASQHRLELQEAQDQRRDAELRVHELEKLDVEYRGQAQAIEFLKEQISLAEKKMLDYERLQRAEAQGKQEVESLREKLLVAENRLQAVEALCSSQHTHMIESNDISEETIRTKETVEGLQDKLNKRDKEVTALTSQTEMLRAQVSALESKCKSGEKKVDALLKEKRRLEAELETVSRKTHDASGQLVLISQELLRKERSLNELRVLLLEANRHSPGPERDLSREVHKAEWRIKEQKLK

[3] = molecular target: B4
[4] = molecular target: T3, VPS28 protein (aa 9-211) (human, UniProt Q9UK41 9-211)
T3 construct: range 9-211
T3 sequence (looked up): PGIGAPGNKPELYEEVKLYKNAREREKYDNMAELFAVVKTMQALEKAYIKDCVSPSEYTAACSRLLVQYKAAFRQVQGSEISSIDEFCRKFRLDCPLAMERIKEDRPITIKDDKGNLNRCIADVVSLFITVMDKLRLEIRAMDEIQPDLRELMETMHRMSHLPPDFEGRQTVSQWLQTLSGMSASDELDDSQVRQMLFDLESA

[5] = molecular target: T4, hypothetical protein FLJ10540 (aa 1-140) (UniProt Q53EZ4 1-140)
T4 construct: range 1-140
T4 sequence (looked up): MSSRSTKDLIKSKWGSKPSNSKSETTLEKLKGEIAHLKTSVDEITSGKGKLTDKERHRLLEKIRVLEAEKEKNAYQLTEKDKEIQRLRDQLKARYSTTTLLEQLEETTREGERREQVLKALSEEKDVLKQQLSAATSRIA

[6] = molecular target: B1
[7] = molecular target: T5, Death associated protein 5 (DAP5) (aa 16-157) (UniProt P78344 16-157)
T5 construct: range 16-157
T5 sequence (looked up): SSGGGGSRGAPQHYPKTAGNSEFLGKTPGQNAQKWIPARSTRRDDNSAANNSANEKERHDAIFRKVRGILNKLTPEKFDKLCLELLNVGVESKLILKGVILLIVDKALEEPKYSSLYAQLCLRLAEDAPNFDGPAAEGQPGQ

[8] = molecular target: T6, Chromosome-associated polypeptide HCAP (aa 119-353) (human, UniProt Q9UQE7 119-353)
T6 construct: range 119-353

[9] = molecular target: T7, Protein kinase C and casein kinase substrate (PACSIN2) (aa 174-367) (UniProt Q9UNF0 174-367)
T7 construct: range 174-367
T7 sequence (looked up): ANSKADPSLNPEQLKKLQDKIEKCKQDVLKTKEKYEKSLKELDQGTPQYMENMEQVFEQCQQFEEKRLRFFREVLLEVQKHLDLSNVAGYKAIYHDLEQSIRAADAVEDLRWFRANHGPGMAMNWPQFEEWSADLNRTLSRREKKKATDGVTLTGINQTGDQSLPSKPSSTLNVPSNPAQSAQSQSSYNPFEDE

T6 sequence (Q9UQE7 119-353 limits assumed): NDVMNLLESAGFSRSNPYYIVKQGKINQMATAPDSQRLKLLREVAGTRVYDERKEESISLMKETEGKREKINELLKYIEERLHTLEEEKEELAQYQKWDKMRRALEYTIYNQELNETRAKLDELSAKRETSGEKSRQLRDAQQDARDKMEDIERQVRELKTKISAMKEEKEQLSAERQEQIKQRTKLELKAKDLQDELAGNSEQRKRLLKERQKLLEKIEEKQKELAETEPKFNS

B1: binds [1].

B2: Tsg101 (aa 231-391) (other, human, UniProt Q99816 231-390, looked up)
chain: ISAVSDKLRWRMKEEMDRAQAELNALKRTEEDLKKGHQKLEEMVTRLDQEVAEVDKNIELLKKKDEELSSALEKMENQSENNDIDEVIIPTAPLYKQILNLYAEENAIEDTIFYLGEALRRGVIDLDVFLKHVRLLSRKQFQLRALMQKARKTAGLSDLY
B2: binds [2]; binds [1]; binds [3]. B2: binds [4].

B3: Tsg101 (aa 140-270) (other, human, UniProt Q99816 140-270, looked up)
chain: PVFSRPISASYPPYQATGPPNTSYMPGMPGGISPYPSGYPPNPSGYPGCPYPPGGPYPATTSSQYPSQPPVTTVGPSRDGTISEDTIRASLISAVSDKLRWRMKEEMDRAQAELNALKRTEEDLKKGHQKL
notes: range 140-270
B3: binds [5].

B4: binds [6].

B5: VPS28 protein (aa 27-221) (other, human, UniProt Q9UK41 27-221, looked up)
chain: YKNAREREKYDNMAELFAVVKTMQALEKAYIKDCVSPSEYTAACSRLLVQYKAAFRQVQGSEISSIDEFCRKFRLDCPLAMERIKEDRPITIKDDKGNLNRCIADVVSLFITVMDKLRLEIRAMDEIQPDLRELMETMHRMSHLPPDFEGRQTVSQWLQTLSGMSASDELDDSQVRQMLFDLESAYNAFNRFLHA
B5: binds [6].

B6: Tsg101 (aa 265-391) (other, human, UniProt Q99816 265-390, looked up)
chain: KGHQKLEEMVTRLDQEVAEVDKNIELLKKKDEELSSALEKMENQSENNDIDEVIIPTAPLYKQILNLYAEENAIEDTIFYLGEALRRGVIDLDVFLKHVRLLSRKQFQLRALMQKARKTAGLSDLY
notes: range 265-391
B6: binds [7]; binds [8]; binds [9]. B6: binds [3].

B7: Tsg101 (aa 317-391) (other, human, UniProt Q99816 317-390, looked up)
chain: VIIPTAPLYKQILNLYAEENAIEDTIFYLGEALRRGVIDLDVFLKHVRLLSRKQFQLRALMQKARKTAGLSDLY
notes: range 317-391
B7: binds [3].

Reference: patent US7202329 (MYRIAD GENETICS, dated 2007)
